This is an account of results in US20230038638A1, “COMPLEMENT FACTOR I-RELATED COMPOSITIONS AND METHODS” (published 2023).

Substitutions are numbered along the chain they refer to.

For test [1], the target named is T1, human C4b (human) (UniProt P0C0L4).
T1 sequence: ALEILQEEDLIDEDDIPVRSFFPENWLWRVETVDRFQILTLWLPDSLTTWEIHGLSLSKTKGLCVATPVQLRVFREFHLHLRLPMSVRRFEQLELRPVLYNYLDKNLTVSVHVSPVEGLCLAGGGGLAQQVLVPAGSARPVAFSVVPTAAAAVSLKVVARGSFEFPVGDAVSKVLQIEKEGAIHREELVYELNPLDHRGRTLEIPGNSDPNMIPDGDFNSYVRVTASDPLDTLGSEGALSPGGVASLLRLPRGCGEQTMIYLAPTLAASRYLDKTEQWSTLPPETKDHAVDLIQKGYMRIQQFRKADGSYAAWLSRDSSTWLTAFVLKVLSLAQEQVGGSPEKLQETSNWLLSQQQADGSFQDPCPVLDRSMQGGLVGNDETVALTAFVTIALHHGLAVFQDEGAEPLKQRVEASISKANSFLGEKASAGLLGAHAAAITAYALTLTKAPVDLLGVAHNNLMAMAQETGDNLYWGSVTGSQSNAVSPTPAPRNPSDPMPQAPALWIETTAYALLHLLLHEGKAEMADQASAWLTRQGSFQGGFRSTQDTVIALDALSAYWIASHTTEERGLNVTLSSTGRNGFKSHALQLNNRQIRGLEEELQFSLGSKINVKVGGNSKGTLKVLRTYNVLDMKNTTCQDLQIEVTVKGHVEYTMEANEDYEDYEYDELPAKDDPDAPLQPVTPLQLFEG

Test [2] addresses soluble human C3b (human) (UniProt P01024).
The target of test [3] is T2, human C4b (human) (UniProt P0C0L5).
T2 sequence: T1 sequence with A151T, D317G, P364L, C365S, L368I, D369H, N420S, V451A, L454R, S530A

Chain of Δ(K1-P305); GGSSGG (SEQ ID NO: 6); fH_CCP2-4 (enzyme) (chain): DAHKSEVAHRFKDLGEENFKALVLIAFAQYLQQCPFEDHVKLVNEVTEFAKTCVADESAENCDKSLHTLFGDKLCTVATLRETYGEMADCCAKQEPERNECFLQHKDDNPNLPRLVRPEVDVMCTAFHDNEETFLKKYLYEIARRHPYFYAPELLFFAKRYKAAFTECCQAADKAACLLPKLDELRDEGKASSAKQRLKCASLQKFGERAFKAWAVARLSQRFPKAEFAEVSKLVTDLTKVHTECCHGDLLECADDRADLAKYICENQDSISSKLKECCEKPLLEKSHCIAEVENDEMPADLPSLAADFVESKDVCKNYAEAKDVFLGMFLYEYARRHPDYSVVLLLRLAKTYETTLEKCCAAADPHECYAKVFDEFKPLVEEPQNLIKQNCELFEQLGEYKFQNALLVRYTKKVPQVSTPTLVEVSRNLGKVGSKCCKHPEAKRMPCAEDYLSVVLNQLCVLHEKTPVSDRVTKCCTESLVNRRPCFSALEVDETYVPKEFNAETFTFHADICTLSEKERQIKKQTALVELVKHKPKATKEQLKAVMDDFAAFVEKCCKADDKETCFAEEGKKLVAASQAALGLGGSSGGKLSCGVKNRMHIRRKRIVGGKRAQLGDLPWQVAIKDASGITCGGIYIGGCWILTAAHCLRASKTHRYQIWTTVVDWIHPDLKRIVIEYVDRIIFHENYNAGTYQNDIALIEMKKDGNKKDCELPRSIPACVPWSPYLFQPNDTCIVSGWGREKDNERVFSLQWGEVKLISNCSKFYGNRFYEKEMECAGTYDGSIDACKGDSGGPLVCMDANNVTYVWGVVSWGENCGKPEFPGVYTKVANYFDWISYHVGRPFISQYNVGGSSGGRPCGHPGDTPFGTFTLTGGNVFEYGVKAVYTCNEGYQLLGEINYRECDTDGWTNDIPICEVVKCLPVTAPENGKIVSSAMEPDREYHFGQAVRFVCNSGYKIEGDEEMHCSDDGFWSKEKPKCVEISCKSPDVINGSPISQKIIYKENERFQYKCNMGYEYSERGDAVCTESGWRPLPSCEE
Chain of Δ(K1-P305); GGSSGG (SEQ ID NO: 6); fH_CCP2-3 (enzyme) (chain): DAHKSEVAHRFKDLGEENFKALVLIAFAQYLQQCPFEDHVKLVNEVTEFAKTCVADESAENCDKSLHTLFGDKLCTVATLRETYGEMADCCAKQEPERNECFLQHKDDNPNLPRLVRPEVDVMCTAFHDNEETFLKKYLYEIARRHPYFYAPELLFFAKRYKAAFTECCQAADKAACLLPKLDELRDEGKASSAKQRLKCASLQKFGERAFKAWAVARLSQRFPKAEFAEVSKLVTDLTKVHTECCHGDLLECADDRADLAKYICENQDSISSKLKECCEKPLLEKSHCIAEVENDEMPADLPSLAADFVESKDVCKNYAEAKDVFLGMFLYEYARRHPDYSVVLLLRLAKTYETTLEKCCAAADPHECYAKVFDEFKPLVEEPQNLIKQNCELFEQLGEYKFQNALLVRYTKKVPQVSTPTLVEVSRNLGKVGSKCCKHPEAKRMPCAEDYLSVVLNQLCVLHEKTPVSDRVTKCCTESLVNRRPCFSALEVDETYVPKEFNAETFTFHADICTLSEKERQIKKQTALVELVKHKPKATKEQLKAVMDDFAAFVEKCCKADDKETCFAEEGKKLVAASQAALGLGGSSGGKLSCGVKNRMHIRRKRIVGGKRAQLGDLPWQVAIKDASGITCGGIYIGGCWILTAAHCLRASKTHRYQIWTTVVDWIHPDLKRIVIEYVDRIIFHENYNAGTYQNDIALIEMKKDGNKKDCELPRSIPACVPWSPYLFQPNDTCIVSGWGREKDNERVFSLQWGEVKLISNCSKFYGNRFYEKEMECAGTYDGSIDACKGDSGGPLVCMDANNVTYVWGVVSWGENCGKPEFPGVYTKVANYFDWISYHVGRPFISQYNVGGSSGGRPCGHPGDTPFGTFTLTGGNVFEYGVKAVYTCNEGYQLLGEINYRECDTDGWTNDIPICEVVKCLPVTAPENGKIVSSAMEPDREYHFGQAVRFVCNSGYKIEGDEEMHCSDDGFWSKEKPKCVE
Chain of Δ(K1-P305); GGSSGG (SEQ ID NO: 6); fH_CCP1-4 (enzyme) (chain): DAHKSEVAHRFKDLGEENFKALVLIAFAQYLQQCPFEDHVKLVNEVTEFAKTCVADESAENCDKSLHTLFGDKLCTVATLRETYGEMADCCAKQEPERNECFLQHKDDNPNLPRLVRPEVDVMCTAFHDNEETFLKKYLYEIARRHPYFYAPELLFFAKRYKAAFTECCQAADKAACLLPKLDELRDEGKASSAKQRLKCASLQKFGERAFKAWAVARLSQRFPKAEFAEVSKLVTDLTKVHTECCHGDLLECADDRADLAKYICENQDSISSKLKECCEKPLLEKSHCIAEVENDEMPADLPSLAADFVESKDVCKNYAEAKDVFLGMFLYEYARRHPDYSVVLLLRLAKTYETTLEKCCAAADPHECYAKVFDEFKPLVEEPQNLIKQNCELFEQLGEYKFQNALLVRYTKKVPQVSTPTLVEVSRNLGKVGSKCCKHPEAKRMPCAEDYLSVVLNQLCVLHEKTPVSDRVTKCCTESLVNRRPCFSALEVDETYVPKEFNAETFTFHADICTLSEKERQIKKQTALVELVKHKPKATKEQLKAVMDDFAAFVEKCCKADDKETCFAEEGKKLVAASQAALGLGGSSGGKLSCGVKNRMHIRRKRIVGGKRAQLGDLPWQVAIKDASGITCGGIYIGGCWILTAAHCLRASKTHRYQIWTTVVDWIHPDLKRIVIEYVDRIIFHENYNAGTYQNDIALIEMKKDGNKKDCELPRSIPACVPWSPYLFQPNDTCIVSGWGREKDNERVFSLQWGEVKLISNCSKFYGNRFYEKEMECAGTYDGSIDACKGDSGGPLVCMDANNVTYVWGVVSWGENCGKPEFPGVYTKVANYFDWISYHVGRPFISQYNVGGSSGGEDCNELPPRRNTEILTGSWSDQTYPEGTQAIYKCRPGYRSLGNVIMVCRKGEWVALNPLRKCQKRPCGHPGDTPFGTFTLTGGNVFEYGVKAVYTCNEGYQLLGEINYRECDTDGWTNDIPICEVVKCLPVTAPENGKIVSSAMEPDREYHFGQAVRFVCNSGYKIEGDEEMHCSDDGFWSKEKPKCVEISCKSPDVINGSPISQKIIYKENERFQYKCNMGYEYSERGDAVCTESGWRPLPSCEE
Chain of WT; GGSSGG (SEQ ID NO: 6); CCP_2-4 (enzyme) (chain): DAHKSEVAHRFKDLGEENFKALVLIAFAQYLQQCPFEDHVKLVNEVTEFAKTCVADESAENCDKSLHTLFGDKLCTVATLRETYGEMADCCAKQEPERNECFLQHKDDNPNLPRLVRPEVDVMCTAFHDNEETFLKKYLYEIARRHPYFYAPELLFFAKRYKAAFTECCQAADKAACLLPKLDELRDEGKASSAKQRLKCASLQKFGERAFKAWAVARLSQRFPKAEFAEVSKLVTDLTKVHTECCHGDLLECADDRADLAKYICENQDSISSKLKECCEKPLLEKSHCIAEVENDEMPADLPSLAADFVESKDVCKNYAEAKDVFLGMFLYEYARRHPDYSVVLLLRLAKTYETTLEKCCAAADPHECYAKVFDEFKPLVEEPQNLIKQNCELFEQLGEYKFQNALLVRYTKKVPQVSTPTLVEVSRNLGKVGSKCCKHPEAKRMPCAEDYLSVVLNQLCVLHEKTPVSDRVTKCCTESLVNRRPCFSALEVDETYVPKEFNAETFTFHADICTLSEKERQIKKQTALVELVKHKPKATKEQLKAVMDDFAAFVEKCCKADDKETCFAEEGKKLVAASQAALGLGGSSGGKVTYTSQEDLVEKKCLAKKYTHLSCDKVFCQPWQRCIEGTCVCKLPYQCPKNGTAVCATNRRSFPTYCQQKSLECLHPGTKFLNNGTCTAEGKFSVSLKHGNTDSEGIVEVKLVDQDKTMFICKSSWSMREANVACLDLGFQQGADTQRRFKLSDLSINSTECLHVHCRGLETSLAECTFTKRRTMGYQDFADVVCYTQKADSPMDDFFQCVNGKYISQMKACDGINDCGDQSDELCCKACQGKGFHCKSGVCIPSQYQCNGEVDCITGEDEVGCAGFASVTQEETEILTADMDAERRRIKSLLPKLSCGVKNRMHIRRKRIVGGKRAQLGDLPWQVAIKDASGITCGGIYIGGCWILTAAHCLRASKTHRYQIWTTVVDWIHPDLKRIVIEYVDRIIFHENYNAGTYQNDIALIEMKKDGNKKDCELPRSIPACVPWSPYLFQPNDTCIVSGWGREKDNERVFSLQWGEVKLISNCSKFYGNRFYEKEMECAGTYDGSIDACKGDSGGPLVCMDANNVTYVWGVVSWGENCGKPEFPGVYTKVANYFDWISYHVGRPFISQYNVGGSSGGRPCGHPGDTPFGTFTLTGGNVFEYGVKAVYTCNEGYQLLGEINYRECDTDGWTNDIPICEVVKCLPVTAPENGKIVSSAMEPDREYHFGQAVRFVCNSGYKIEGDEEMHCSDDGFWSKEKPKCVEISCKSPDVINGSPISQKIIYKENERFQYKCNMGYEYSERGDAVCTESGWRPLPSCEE

With CFI-HSA D425E (enzyme), the C4b Screen Ref Fold (fold of CFI-HSA wild type) in test [1] worked out at 1.75. For the same substance, the iC3b Screen Ref Fold (fold of CFI-HSA wild type) in test [2] was determined as 1.52.
For CFI-HSA D425F (enzyme), the C4b Screen Ref Fold (fold of CFI-HSA wild type) in test [1] stood at 1.6. Besides, the iC3b Screen Ref Fold (fold of CFI-HSA wild type) in test [2] is 1.91.
On to CFI-HSA D425H (enzyme), for which the C4b Screen Ref Fold (fold of CFI-HSA wild type) in test [1] was found to be 1.79. Further, in test [2], the iC3b Screen Ref Fold (fold of CFI-HSA wild type) is 1.75.
Turning to CFI-HSA D425I (enzyme), the C4b Screen Ref Fold (fold of CFI-HSA wild type) in test [1] was 1.38. Besides, the iC3b Screen Ref Fold (fold of CFI-HSA wild type) in test [2] worked out at 1.86.
The corresponding values for CFI-HSA D425L (enzyme) are 1.46 and 0.94.
For CFI-HSA D425M (enzyme), in that order: 2.18 and 0.91.
On to CFI-HSA D425N (enzyme), for which the C4b Screen Ref Fold (fold of CFI-HSA wild type) in test [1] is 1.54. In addition, the iC3b Screen Ref Fold (fold of CFI-HSA wild type) in test [2] turned out to be 1.66.
As to CFI-HSA D425P (enzyme), in test [1], the C4b Screen Ref Fold (fold of CFI-HSA wild type) came to 0.29. For the same substance, the iC3b Screen Ref Fold (fold of CFI-HSA wild type) in test [2] was 0.72.
As to CFI-HSA D425Q (enzyme), the C4b Screen Ref Fold (fold of CFI-HSA wild type) in test [1] was found to be 1.83. For the same substance, the iC3b Screen Ref Fold (fold of CFI-HSA wild type) in test [2] stood at 1.87.
In the case of CFI-HSA D425S (enzyme), the C4b Screen Ref Fold (fold of CFI-HSA wild type) in test [1] came to 1.13. Further, in test [2], the iC3b Screen Ref Fold (fold of CFI-HSA wild type) turned out to be 2.21.
Take CFI-HSA D425T (enzyme): in test [1], the C4b Screen Ref Fold (fold of CFI-HSA wild type) is 2.05. In addition, the iC3b Screen Ref Fold (fold of CFI-HSA wild type) in test [2] amounted to 2.16.
Take CFI-HSA D425V (enzyme): the C4b Screen Ref Fold (fold of CFI-HSA wild type) in test [1] was 2.51. The iC3b Screen Ref Fold (fold of CFI-HSA wild type) in test [2] was 0.98.
The corresponding values for CFI-HSA D425W (enzyme) are 0.89 and 1.59.
With CFI-HSA D425Y (enzyme), in test [1], the C4b Screen Ref Fold (fold of CFI-HSA wild type) is 2.87. Further, in test [2], the iC3b Screen Ref Fold (fold of CFI-HSA wild type) was 1.15.
In the case of CFI-HSA D506F (enzyme), the C4b Screen Ref Fold (fold of CFI-HSA wild type) in test [1] was found to be 0.35. Besides, the iC3b Screen Ref Fold (fold of CFI-HSA wild type) in test [2] is -0.03.
For the substance CFI-HSA D506H (enzyme), the C4b Screen Ref Fold (fold of CFI-HSA wild type) in test [1] is 0.31. In addition, the iC3b Screen Ref Fold (fold of CFI-HSA wild type) in test [2] was determined as 0.
Consider CFI-HSA D506I (enzyme), for which the C4b Screen Ref Fold (fold of CFI-HSA wild type) in test [1] was found to be 0.16. In test [2], the iC3b Screen Ref Fold (fold of CFI-HSA wild type) was -0.02.
As for “WT; GGSSGG (SEQ ID NO: 6); CCP_1-5; GGSS(3) + GGG; compstatin (enzyme)”, the C4b Screen Ref Fold (fold vs CFI-HSA wild type) in test [3] was 0.25. The iC3b Screen Ref Fold (fold vs CFI-HSA wild type) in test [2] amounted to 0.03.
As to “WT; GGSSGG (SEQ ID NO: 6); CCP_2-4 (enzyme)”, the C4b Screen Ref Fold (fold vs CFI-HSA wild type) in test [3] turned out to be 0.38. Also, the iC3b Screen Ref Fold (fold vs CFI-HSA wild type) in test [2] was 0.
Take fH_CCP1-4; GGGGSS(7); wt hCFI (enzyme): in test [3], the C4b Screen Ref Fold (fold vs CFI-HSA wild type) was found to be 1.21. In test [2], the iC3b Screen Ref Fold (fold vs CFI-HSA wild type) turned out to be 0.77.
fH_CCP1-4; GGGGSS(9); wt hCFI (enzyme): the C4b Screen Ref Fold (fold vs CFI-HSA wild type) in test [3] is 0.97. Further, the iC3b Screen Ref Fold (fold vs CFI-HSA wild type) in test [2] is 0.66.
Regarding fH_CCP1-4; GGSS(11); wt hCFI (enzyme), the C4b Screen Ref Fold (fold vs CFI-HSA wild type) in test [3] is 1.49. Besides, in test [2], the iC3b Screen Ref Fold (fold vs CFI-HSA wild type) is 0.69.
As for fH_CCP1-4; GGSS(13); wt hCFI (enzyme), the C4b Screen Ref Fold (fold vs CFI-HSA wild type) in test [3] was found to be 1.63. Besides, the iC3b Screen Ref Fold (fold vs CFI-HSA wild type) in test [2] is 0.6.
As to “Δ(K1-P305); GGSSGG (SEQ ID NO: 6); fH_CCP1-4 (enzyme)”, the C4b Screen Ref Fold (fold vs CFI-HSA wild type) in test [3] stood at 0.15. In addition, the iC3b Screen Ref Fold (fold vs CFI-HSA wild type) in test [2] was determined as 0.04.
As for “Δ(K1-P305); GGSSGG (SEQ ID NO: 6); fH_CCP2-3 (enzyme)”, the C4b Screen Ref Fold (fold vs CFI-HSA wild type) in test [3] is 0.05. In addition, the iC3b Screen Ref Fold (fold vs CFI-HSA wild type) in test [2] came out at 0.01.
As for “Δ(K1-P305); GGSSGG (SEQ ID NO: 6); fH_CCP2-4 (enzyme)”, the C4b Screen Ref Fold (fold vs CFI-HSA wild type) in test [3] stood at 0.06. Moreover, in test [2], the iC3b Screen Ref Fold (fold vs CFI-HSA wild type) was 0.03.
